Measurements from the supplement of paper PMC9112550, “Optimization of the antimicrobial peptide Bac7 by deep mutational scanning” (BMC Biology, 2022).

Tested on: Escherichia coli TOP10
Test: shrunken log2 fold change of peptide-encoding DNA abundance (4.5 h post-induction vs induction); higher = less antimicrobial activity (less host growth inhibition)
Settings: time post-induction: 4.5 h; library: site-saturation at positions 5, 18, 19, 20
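Note: peptides expressed intracellularly from a pBAD plasmid library in pooled LB shake-flask culture, induced with 0.3% L-arabinose, DNA abundance read by NGS, three biological replicates, DESeq2 with apeglm shrinkage.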

| Sequence | shrunken log2 fold change |
| --- | --- |
| RRIRARPPRLPRPRPRPEMCPRP | 1.17 |
| RRIRMRPPRLPRPRPRPTADPRP | 2.84 |
| RRIRVRPPRLPRPRPRPDNRPRP | -0.00604 |
| RRIRKRPPRLPRPRPRPFPNPRP | 0.0546 |
| RRIRQRPPRLPRPRPRPNCMPRP | 0.188 |
| RRIRFRPPRLPRPRPRPNRHPRP | -0.874 |
| RRIRVRPPRLPRPRPRPYTFPRP | -0.314 |
| RRIRYRPPRLPRPRPRPIQDPRP | -0.00166 |
| RRIRRRPPRLPRPRPRPNNLPRP | -0.293 |
| RRIRRRPPRLPRPRPRPQFKPRP | -0.145 |
| RRIRIRPPRLPRPRPRPKILPRP | -0.0568 |
| RRIRARPPRLPRPRPRPWLCPRP | 0.116 |
| RRIRYRPPRLPRPRPRPHQLPRP | -0.191 |
| RRIRPRPPRLPRPRPRPPWFPRP | 0.32 |
| RRIRVRPPRLPRPRPRPMSKPRP | -0.0756 |
| RRIRHRPPRLPRPRPRPVIYPRP | -0.678 |
| RRIRSRPPRLPRPRPRPIGPPRP | -0.0999 |
| RRIRARPPRLPRPRPRPNWYPRP | -0.245 |
| RRIRNRPPRLPRPRPRPTFNPRP | -0.506 |
| RRIRMRPPRLPRPRPRPRKTPRP | 0.514 |
| RRIRERPPRLPRPRPRPKLGPRP | 0.12 |
| RRIRCRPPRLPRPRPRPDLIPRP | -0.109 |
| RRIRIRPPRLPRPRPRPYPPPRP | -0.818 |
| RRIRYRPPRLPRPRPRPTHHPRP | -0.509 |
| RRIRHRPPRLPRPRPRPRKVPRP | -0.0134 |

| Sequence | shrunken log2 fold change |
| --- | --- |
| RRIRDRPPRLPRPRPRPLNSPRP | 0.0283 |
| RRIRHRPPRLPRPRPRPREKPRP | -0.0164 |
| RRIRIRPPRLPRPRPRPQWKPRP | -0.186 |
| RRIRIRPPRLPRPRPRPWTHPRP | -0.0959 |
| RRIRYRPPRLPRPRPRPHNMPRP | -0.17 |
| RRIRFRPPRLPRPRPRPVFDPRP | -0.258 |
| RRIRDRPPRLPRPRPRPPDVPRP | 0.302 |
| RRIRYRPPRLPRPRPRPVRTPRP | -0.137 |
| RRIRERPPRLPRPRPRPCILPRP | -0.425 |
| RRIRGRPPRLPRPRPRPGFTPRP | 0.11 |
| RRIRSRPPRLPRPRPRPDIMPRP | -0.661 |
| RRIRMRPPRLPRPRPRPETYPRP | 0.451 |
| RRIRDRPPRLPRPRPRPMLNPRP | 0.21 |
| RRIRWRPPRLPRPRPRPDCAPRP | 0.97 |
| RRIRWRPPRLPRPRPRPNNNPRP | -0.514 |
| RRIRNRPPRLPRPRPRPMCCPRP | -0.406 |
| RRIRWRPPRLPRPRPRPLVKPRP | 0.147 |
| RRIRYRPPRLPRPRPRPKSVPRP | -0.187 |
| RRIRERPPRLPRPRPRPFGAPRP | 0.143 |
| RRIRYRPPRLPRPRPRPNREPRP | 0.00551 |
| RRIRHRPPRLPRPRPRPPSYPRP | -0.266 |
| RRIRYRPPRLPRPRPRPWEPPRP | -0.0182 |
| RRIRYRPPRLPRPRPRPHESPRP | 0.00952 |
| RRIRMRPPRLPRPRPRPSLEPRP | 0.895 |
| RRIRPRPPRLPRPRPRPDIVPRP | -0.0822 |

| Sequence | shrunken log2 fold change |
| --- | --- |
| RRIRARPPRLPRPRPRPYSWPRP | -0.0849 |
| RRIRDRPPRLPRPRPRPANCPRP | -0.00155 |
| RRIRMRPPRLPRPRPRPTFMPRP | 0.154 |
| RRIRCRPPRLPRPRPRPHACPRP | -0.281 |
| RRIRYRPPRLPRPRPRPTTIPRP | -0.769 |
| RRIRRRPPRLPRPRPRPSLAPRP | 0.89 |
| RRIRKRPPRLPRPRPRPEKEPRP | 0.139 |
| RRIRYRPPRLPRPRPRPYERPRP | -0.00804 |
| RRIRQRPPRLPRPRPRPDDHPRP | -0.00211 |
| RRIRFRPPRLPRPRPRPEPMPRP | -0.278 |
| RRIRMRPPRLPRPRPRPKDRPRP | 1.87 |
| RRIRLRPPRLPRPRPRPTTAPRP | 0.115 |
| RRIRVRPPRLPRPRPRPECHPRP | 0.241 |
| RRIRERPPRLPRPRPRPMIRPRP | 0.0011 |
| RRIRKRPPRLPRPRPRPTNDPRP | 0.191 |
| RRIRNRPPRLPRPRPRPQKDPRP | -0.564 |
| RRIRNRPPRLPRPRPRPRCPPRP | -0.0521 |
| RRIRDRPPRLPRPRPRPYFAPRP | -0.413 |
| RRIRMRPPRLPRPRPRPNQEPRP | -0.0314 |
| RRIRPRPPRLPRPRPRPGQDPRP | -0.0902 |
| RRIRSRPPRLPRPRPRPFCDPRP | -0.353 |
| RRIRFRPPRLPRPRPRPTVGPRP | -0.142 |
| RRIRARPPRLPRPRPRPYFLPRP | -0.557 |
| RRIRVRPPRLPRPRPRPHTTPRP | -0.26 |
| RRIRPRPPRLPRPRPRPRHDPRP | 0.186 |

| Sequence | shrunken log2 fold change |
| --- | --- |
| RRIRDRPPRLPRPRPRPRCYPRP | 0.105 |
| RRIRVRPPRLPRPRPRPIWRPRP | 0.207 |
| RRIRSRPPRLPRPRPRPKWQPRP | 0.255 |
| RRIRPRPPRLPRPRPRPYKHPRP | -0.777 |
| RRIRGRPPRLPRPRPRPPFKPRP | 0.659 |
| RRIRYRPPRLPRPRPRPPMKPRP | -0.137 |
| RRIRMRPPRLPRPRPRPSKTPRP | 0.00519 |
| RRIRYRPPRLPRPRPRPKNLPRP | -0.36 |
| RRIRLRPPRLPRPRPRPEHCPRP | 0.0119 |
| RRIRGRPPRLPRPRPRPDEDPRP | 0.168 |
| RRIRERPPRLPRPRPRPNAYPRP | -0.0628 |
| RRIRGRPPRLPRPRPRPNMRPRP | 1.08 |
| RRIRNRPPRLPRPRPRPQGSPRP | -0.0968 |
| RRIRKRPPRLPRPRPRPLHIPRP | -0.172 |
| RRIRRRPPRLPRPRPRPQLNPRP | 0.159 |
| RRIRRRPPRLPRPRPRPKMDPRP | -0.0711 |
| RRIRARPPRLPRPRPRPKYRPRP | -0.118 |
| RRIRMRPPRLPRPRPRPIDDPRP | -0.0846 |
| RRIRARPPRLPRPRPRPLKSPRP | 0.012 |
| RRIRYRPPRLPRPRPRPKCRPRP | -0.153 |
| RRIRFRPPRLPRPRPRPNHKPRP | -0.405 |
| RRIRLRPPRLPRPRPRPKREPRP | 0.0937 |
| RRIRHRPPRLPRPRPRPMLRPRP | -0.0571 |
| RRIRPRPPRLPRPRPRPCNQPRP | -0.0514 |
| RRIRFRPPRLPRPRPRPGTMPRP | -0.494 |

| Sequence | shrunken log2 fold change |
| --- | --- |
| RRIRPRPPRLPRPRPRPECCPRP | 0.526 |
| RRIRTRPPRLPRPRPRPLWKPRP | -0.178 |
| RRIRARPPRLPRPRPRPVFLPRP | 1.14 |
| RRIRTRPPRLPRPRPRPATNPRP | -0.0241 |
| RRIRYRPPRLPRPRPRPGVTPRP | -0.048 |
| RRIRTRPPRLPRPRPRPPLSPRP | -0.0606 |
| RRIRDRPPRLPRPRPRPMKRPRP | 0.108 |
| RRIRNRPPRLPRPRPRPGHEPRP | -0.265 |
| RRIRFRPPRLPRPRPRPHMIPRP | -0.395 |
| RRIRVRPPRLPRPRPRPGYNPRP | -0.193 |
| RRIRKRPPRLPRPRPRPALNPRP | 0.589 |
| RRIRQRPPRLPRPRPRPFSPPRP | -0.0643 |
| RRIRTRPPRLPRPRPRPGFEPRP | 0.613 |
| RRIRIRPPRLPRPRPRPTAMPRP | -0.191 |
| RRIRCRPPRLPRPRPRPVIHPRP | -0.567 |
| RRIRERPPRLPRPRPRPQSHPRP | -0.268 |
| RRIRYRPPRLPRPRPRPEDHPRP | -0.581 |
| RRIRSRPPRLPRPRPRPHRAPRP | 0.0729 |
| RRIRSRPPRLPRPRPRPVYGPRP | -0.355 |
| RRIRKRPPRLPRPRPRPHPFPRP | 0.188 |
| RRIRMRPPRLPRPRPRPFQKPRP | -0.00623 |
| RRIRVRPPRLPRPRPRPSKTPRP | -0.61 |
| RRIRCRPPRLPRPRPRPQTAPRP | 0.225 |
| RRIRQRPPRLPRPRPRPKICPRP | -0.101 |
| RRIRMRPPRLPRPRPRPITMPRP | 0.0833 |

| Sequence | shrunken log2 fold change |
| --- | --- |
| RRIRRRPPRLPRPRPRPNIQPRP | 0.0304 |
| RRIRCRPPRLPRPRPRPPVHPRP | -0.112 |
| RRIRLRPPRLPRPRPRPKRQPRP | 0.045 |
| RRIRQRPPRLPRPRPRPGVEPRP | 0.0735 |
| RRIRMRPPRLPRPRPRPYHAPRP | -0.387 |
| RRIRFRPPRLPRPRPRPYRPPRP | -1.76 |
| RRIRDRPPRLPRPRPRPFDNPRP | 0.0553 |
| RRIRMRPPRLPRPRPRPEVSPRP | 0.221 |
| RRIRDRPPRLPRPRPRPPAFPRP | 0.192 |
| RRIRIRPPRLPRPRPRPGDAPRP | 0.0793 |
| RRIRKRPPRLPRPRPRPRWEPRP | 0.0207 |
| RRIRRRPPRLPRPRPRPWTYPRP | -0.0139 |
| RRIRRRPPRLPRPRPRPLEVPRP | 0.197 |
| RRIRYRPPRLPRPRPRPVSMPRP | -0.00201 |
| RRIRTRPPRLPRPRPRPVDPPRP | -0.175 |
| RRIRNRPPRLPRPRPRPYWLPRP | -0.55 |
| RRIRTRPPRLPRPRPRPKGWPRP | 0.414 |
| RRIRYRPPRLPRPRPRPSGDPRP | -0.514 |
| RRIRGRPPRLPRPRPRPARVPRP | 0.614 |
| RRIRWRPPRLPRPRPRPGRGPRP | 0.643 |
| RRIRARPPRLPRPRPRPFCTPRP | 0.0721 |
| RRIRARPPRLPRPRPRPSRSPRP | 0.349 |
| RRIRPRPPRLPRPRPRPTEYPRP | -0.264 |
| RRIRARPPRLPRPRPRPHYWPRP | -0.658 |
| RRIRDRPPRLPRPRPRPHGQPRP | 0.237 |
